Publication PMC3480499, “Isolation of Reovirus T3D Mutants Capable of Infecting Human Tumor Cells Independent of Junction Adhesion Molecule-A” (PLoS ONE, 2012)
Residue numbers refer to the chain shown, from its start. Numbers in names are those of the source.

B1: reovirus type 3 Dearing (T3D) spike protein σ1, wild type (natural protein)
chain: MDPRLREEVVRLIIALTSDNGASLSKGLESRVSALEKTSQIHSDTILRITQGLDDANKRIIALEQSRDDLVASVSDAQLAISRLESSIGALQTVVNGLDSSVTQLGARVGQLETGLAELRVDHDNLVARVDTAERNIGSLTTELSTLTLRVTSIQADFESRISTLERTAVTSAGAPLSIRNNRMTMGLNDGLTLSGNNLAIRLPGNTGLNIQNGGLQFRFNTDQFQIVNNNLTLKTTVFDSINSRIGATEQSYVASAVTPLRLNSSTKVLDMLIDSSTLEINSSGQLTVRSTSPNLRYPIADVSGGIGMSPNYRFRQSMWIGIVSYSGSGLNWRVQVNSDIFIVDDYIHICLPAFDGFSIADGGDLSLNFVTGLLPPLLTGDTEPAFHNDVVTYGAQTVAIGLSSGGAPQYMSKNLWVEQWQDGVLRLRVEGGGSITHSNSKWPAMTVSYPRSFT
modifications: [35S]-methionine labelled
notes: a stop codon was introduced behind the S1 ORF so that the Myc-His tag of the vector is absent; also called wt σ1; wt T3D σ1
B2: reovirus T3D spike protein σ1 with the Y313A substitution (natural protein)
chain: B1 chain with Y313A
modifications: [35S]-methionine labelled
notes: Outer capsid (attachment/spike) protein σ1 of mammalian reovirus type 3 Dearing, S1 ORF without tag, with Y313A made by mutation PCR on pDGC-S1delTag; Forms only intermediate trimers (shaft trimerized, head monomeric), no mature trimers; Parent plasmid as for m1; also called σ1-Y313A; S1Y313A
B3: reovirus T3D spike protein σ1 with the Q336R substitution (natural protein)
chain: B1 chain with Q336R
modifications: [35S]-methionine labelled
notes: Outer capsid (attachment/spike) protein σ1 of mammalian reovirus type 3 Dearing, S1 ORF without tag, with Q336R made by mutation PCR on pDGC-S1delTag; Q336R arose spontaneously in the jin-1 and jin-2 viruses; Carries only Q336R, not T193M of jin-1 or G187R of jin-2; Parent plasmid as for m1; also called σ1-Q336R; S1Q336R

Target: the molecule itself
Experiment: in vitro trimerization assay (mild SDS-PAGE at 4°C); [35S]-methionine labelled in vitro transcription-translation products incubated in sample buffer (2% SDS, 2.5% β-mercaptoethanol) 30 min at 37°C (or boiled 5 min to disrupt trimers), run on a 10% SDS-polyacrylamide gel kept at 4°C, autoradiography

| Protein | stoichiometry N |
| --- | --- |
| B1 | 3 |
| B2 | 3 |
| B3 | 3 |
